Data taken from the supplement of paper PMC12042874.
± gives the uncertainty stated by the source.

Experiment: amyloid nucleation score (Sup35N fusion, yeast selection) (log enrichment); library NNK3; higher = more nucleation; inactive = no reads after selection
Outline: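 Random libraries were run with three technical output replicates. In each, psi-negative yeast expressing Sup35N fused to peptides of 20 random codons were induced 24 hours with 100 μM copper sulfate and grown 7 days at 30°C on medium lacking adenine and uracil, and input and output plasmid inserts were Illumina-sequenced. The nucleation score is the DiMSum log enrichment of output over input reads, centred on the mode score of non-aggregating sequences, and sequences under 100 input reads were excluded.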

Substance | amyloid nucleation score
NTFDTVLFRDLVYL | inactive
NTFWLGVRIDGVFGWATNLP | inactive
NTHAVLICKCKDCEWNMIGG | 0.246 ± 0.66
NTLWYIWGG | inactive
NTPLWAFPEVLSDHNFN | inactive
NTRRNYNGRYLVLCIRLQLR | 1.81 ± 0.072
NTVEPLYCCCSNRCISVSYV | inactive
NVCDRLLDKPHELSFSEKSV | inactive
NVDVTELCTAVTYNDLHGFR | inactive
NVFLMAYRVYACKLRGTGLS | inactive
NVFSFFTTSSEKGLCPPRRS | inactive
NVISV | inactive
NVLQYYNRLGTSRCIRAAFL | inactive
NVLVKYVPAALFRSNSLQET | inactive
NVMSLSMWSSLSLWYSGLS | inactive
NVNGSFKI | inactive
NVNWIRFDFHFVFV | 2 ± 0.071
NVPLKWLTWYNRRAATWVEM | inactive
NVQRNVNAE | inactive
NVTNSRHHLQFGYMRAMVNV | inactive
NVTTNRVTKLLAN | inactive
NVVFSFMVTRCDRLWS | 0.661 ± 0.27
NVVSWGHDLYGKKAPALWEV | inactive
NVVYTFPLYASDMGIGV | inactive

Substance | amyloid nucleation score
NVYIVSIRMFCDYRVTAPKT | 2.35 ± 0.068
NVYSPKRVLSGCLSPDISEF | inactive
NWGMTNAFFISGKRSGMSSM | 0.42 ± 0.38
NWLCDRVRCCWKLNNNDMKL | -0.22 ± 0.88
NWVAKMGFVHGSSKRYSPPK | 0.111 ± 0.61
NYDIASLFTTNKSFV | inactive
NYDIILMLGWSVTFKLKVRF | -0.36 ± 1.1
NYFCDIFNLSVNSILNYY | 0.68 ± 0.19
NYGAN | inactive
NYGPGHRGGSN | inactive
NYICVK | inactive
NYIWLFVLYAIVRFSHWLDF | 0.779 ± 0.14
NYRRTCTVLSDGYFNYIT | inactive
NYTSCNFNVYNSMFFRRYTM | 3.2 ± 0.053
NYVLGGCNLGSSGCRVRLSC | inactive
NYVLRSMSGTRFRALWRVAP | inactive
NYVPQSGYNVDNVLNILTKL | inactive
NYYRC | inactive
PAQLHNTVHL | inactive
PCASLM | inactive
PCRMKLVFFRDE | inactive
PCRPGRSRVVHS | 0.614 ± 0.27
PCSGLKCSKGCWCNKICKYK | 1.37 ± 0.13
PDEAVGV | -1.19 ± 2.5

Substance | amyloid nucleation score
PDGTILMCGRPMCYIVYGAK | inactive
PDLITLIFGSHFGKCSFISY | inactive
PDLLTRILERPGVSECFMQW | inactive
PDLVNISSSPYRRCGYRWVD | inactive
PDMSNIQTFWDSRVMGRTR | inactive
PDYEHKVSLLEGKRAYLEHF | inactive
PDYGMSLCHLPTWMW | inactive
PEGPDLTLILAIKPKLSCRG | inactive
PEMSSSGAKAKYPTSMTS | inactive
PEYCKAWLRWKPISVYTQVW | inactive
PFDHTSHNVVRKLLSSELLR | inactive
PFLCFRIYFSACWINLTLNL | 1.78 ± 0.086
PFLLSFKGNMQADSPGC | inactive
PFLLSMNVGQGFRRV | inactive
PFNLPMARNETWGTVQAKIR | inactive
PFPFSNLLERV | 0.364 ± 0.34
PFTLSSMVSVLPMGFRIGDK | inactive
PFTPFSHVR | inactive
PFYFCGHSQYSWTAW | inactive
PGISRNFVNGPRWSMFS | inactive
PGLCGNGHNDHKTVNIEVYH | inactive
PGNEEVGTNCMLTSNLTYVH | inactive
PGVDERT | inactive
PGWVDHIEAISRTVRGWFGP | 1.77 ± 0.12

Substance | amyloid nucleation score
PHNGHKNSWCTVPGSSCRSV | 1.14 ± 0.18
PIILKIPV | inactive
PINWECWDQELEGLHDMQAI | inactive
PIPHML | -0.592 ± 0.75
PIPLIPFE | inactive
PIRWYRRSLFLCWLTDDRLG | inactive
PIYDRFTSKIACLNMMVDLR | 0.101 ± 0.29
PKISFSGWM | inactive
PLKIYIGNQLV | inactive
PLLGSIFRFWWRGDTLMYRL | inactive
PLLMDPTFPFAIRTDMVSLR | inactive
PLMRTGEDISPERQRDGRGK | inactive
PLSNGELFRNATLNDGIWGE | inactive
PLTLIQDQQGRVSFSKA | inactive
PLTVI | inactive
PMHLTKVHVVRNFVTQSTRG | inactive
PMLVALWCMGKTN | -0.521 ± 1.4
PMQAS | inactive
PNEMGSSVMENNWTIHNFGM | inactive
PNFLRTCLLTYRGRSY | inactive
PNGALK | inactive
PNGHLLYMYFFMRDGSSDRG | inactive
PNHEFYRARFRLCNAICTTV | inactive
PNQYWQ | inactive

Substance | amyloid nucleation score
PPCYKI | inactive
PQLWSMYHSGP | -0.586 ± 1.4
PRMRFILGFVIIEKENDRVK | -0.431 ± 0.62
PRVFGRVTSRMFLDFVLNF | 0.982 ± 0.14
PSHIGLL | inactive
PSQAFS | inactive
PSQHMRSARRQVGKSTSNEG | inactive
PSSRT | inactive
PTAHYWSVRSRSIDPPACQW | inactive
PTFVPARSRYSLNVFNPLDE | inactive
PTKDVMVGSK | inactive
PTSSKLKFAFINYVLTVSTS | inactive
PTSVY | 0.481 ± 0.32
PTYAC | inactive
PVDIVHVHAIRIMFMEGSDV | inactive
PVEWP | -0.114 ± 0.78
PVGVMTVSDLLFDYFAFRSF | inactive
PVITSYSSIYVSCDIVW | inactive
PVLGPAEGITIGRGV | inactive
PVLLIRSKFDQRRAWSFHTV | inactive
PVLWPLFKYVCFLTW | inactive
PVSLNDIYIIKCANKNYEVI | inactive
PVWLCSLPR | inactive
PWKLYYNFQVLLLNAGHLML | inactive

Substance | amyloid nucleation score
PYFRMVNYYFFMTVSGRFNF | -0.507 ± 1
PYLRMG | inactive
PYMITILHFISHATVLNTSV | inactive
PYSKELVHVTSSSATFTRCE | inactive
PYVQRNVCCAPV | inactive
QAIQPSMQGLWQRALTSRSP | inactive
QAQVDKCLLARFVGL | inactive
QATFGWTANSSLFFSRDFLA | inactive
QAVTMRTGVKCYQIGRAWIG | -0.313 ± 0.84
QCFKDRMWHGICREPVAKIG | inactive
QDALVSCWKFGAVSDQCDYW | inactive
QDEPTMNVQ | inactive
QDLGECN | inactive
QESLDANFGLIVCYADLAED | inactive
QFESSSFRYVAVCSVCAFSI | 1.73 ± 0.099
QFFSISIFTWVYLVENVADI | inactive
QFITLCLSSRSEVSVPFSLW | 0.997 ± 0.12
QFKYHYYNLCWSTSVFSFKN | 0.837 ± 0.22
QGFFGDNNAV | inactive
QGNSIWMYLGWVNKTML | inactive
QHALCSTAIRILLSV | inactive
QHYDDSNRFYNK | inactive
QICTQFRSG | inactive
QIFLVKPMSDFSCNSSRYTL | -0.423 ± 0.76

Substance | amyloid nucleation score
QILFTQILLNSGEEGLSFVS | 0.479 ± 0.18
QIVFIRPKNL | inactive
QKLSCPMFLMAIIVSKITKM | inactive
QKVLLWTSGPSSSRHRTEEF | inactive
QLCLKGSPIVVVRCLRHNKI | inactive
QLGFWKELSSSHS | inactive
QLLGNGP | inactive
QLLLKT | inactive
QLNGCHWCTMLSVVFCSRGV | 2.72 ± 0.069
QLRGGVHMMHVCACGVDWWM | inactive
QLSFMEGANLRYCDFKPMIV | inactive
QLSVYIYLLIQLVISRKRNT | inactive
QLTNRKCR | -0.8 ± 2.5
QMCTQLSIMI | inactive
QMIRVVVFNYDQFFR | 1.47 ± 0.084
QMYKYNPNLYFFSVAVNLVV | 2.18 ± 0.073
QNLDSMRGGIRSLLVIIRKS | inactive
QQCVTLQIYTMFKLRDYPA | 0.503 ± 0.24
